Experimental findings from patent US20040259244A1, “Methods, compositions, and growth and differentiation factors for insulin-producing cells” (priority 2002, published 2004) are described below.

The subject of this assay is conversion of stem cells into insulin producing cells. Format: cell-based. Particulars: statistical analysis of insulin content of supernatants, 3 donors, combinatorial array in alginate.

B1: TGF beta sRII: TGF beta soluble receptor type 2 (protein, UniProt P37173 23-166, looked up)
extracellular domain: TIPPHVQKSVNNDMIVTDNNGAVKFPQLCKFCDVRFSTCDNQKSCMSNCSITSICEKPQEVCVAVWRKNDENITLETVCHDPKLPYHDFILEDAASPKCIMKEKKKPGETFFMCSCSSDECNDNIIFSEEYNTSNPDLLLVIFQ
modifications: extracellular domain
On to B1, for which the “effect on the conversion of stem cells into insulin producing cells” value (“effect on the conversion” for short) is listed as “potential positive effect”.

B2: BMP-4: Bone Morphogenic Protein (protein, UniProt P12644 293-408, looked up)
Bone morphogenetic protein 4: SPKHHSQRARKKNKNCRRHSLYVDFSDVGWNDWIVAPPGYQAFYCHGDCPFPLADHLNSTNHAIVQTLVNSVNSSIPKACCVPTELSAISMLYLDEYDKVVLKNYQEMVVEGCGCR
Consider B2, for which the “effect on the conversion” value is given as “potential negative effect”.

B3: Soybean Trypsin Inhibitor: A high-molecular-weight protein (approximately 22,500) containing 198 amino acid residues (protein, UniProt P01070 25-205, looked up)
Trypsin inhibitor A: DFVLDNEGNPLENGGTYYILSDITAFGGIRAAPTGNERCPLTVVQSRNELDKGIGTIISSPYRIRFIAEGHPLSLKFDSFAVIMLCVGIPTEWSVVEDLPEGPAVKIGENKDAMDGWFRLERVSDDEFNNYKLVFCPQQAEDDKCGDIGISIDHDDGTRRLVVSKNKPLVVQFQKLDKESL
Consider B3, for which the “effect on the conversion” value is “potential negative effect”.

B4: P1GF: Placental GF, human (protein, UniProt P49763 19-221, looked up)
Placenta growth factor: LPAVPPQQWALSAGNGSSEVEVVPFQEVWGRSYCRALERLVDVVSEYPSEVEHMFSPSCVSLLRCTGCCGDENLHCVPVETANVTMQLLKIRSGDRPSYVELTFSQHVRCECRHSPGRQSPDMPGDFRADAPSFLPPRRSLPMLFRMEWGCALTGSQSAVWPSSPVPEEIPRMHPGRNGKKQQRKPLREKMKPERCGDAVPRR
In the case of B4, the “effect on the conversion” value is on record as “potential negative effect”.

B5: KGF: keratinocyte growth factor or FGF-7 (protein, UniProt P21781 32-194, looked up)
Fibroblast growth factor 7: CNDMTPEQMATNVNCSSPERHTRSYDYMEGGDIRVRRLFCRTQWYLRIDKRGKVKGTQEMKNNYNIMEIRTVAVGIVAIKGVESEFYLAMNKEGKLYAKKECNEDCNFKELILENHYNTYASAKWTHNGGEMFVALNQKGIPVRGKKTKKEQKTAHFLPMAIT
Take B5: the “effect on the conversion” value is listed as “potential positive effect”.

B6: Prolactin: A growth factor with strong structural similarity to growth hormone (protein, UniProt P01236 29-227, looked up)
Prolactin: LPICPGGAARCQVTLRDLFDRAVVLSHYIHNLSSEMFSEFDKRYTHGRGFITKAINSCHTSSLATPEDKEQAQQMNQKDFLSLIVSILRSWNEPLYHLVTEVRGMQEAPEAILSKAVEIEEQTKRLLEGMELIVSQVHPETKENEIYPVWSGLPSLQMADEESRLSAYYNLLHCLRRDSHKIDNYLKLLKCRIIHNNNC
Consider B6, for which the “effect on the conversion” value is “potential negative effect”.

B7: Activin A: growth and differentiation factor (protein, UniProt P08476 311-426, looked up)
Inhibin beta A chain: GLECDGKVNICCKKQFFVSFKDIGWNDWIIAPSGYHANYCEGECPSHIAGTSGSSLSFHSTVINHYRMRGHSPFANLKSCCVPTKLRPMSMLYYDDGQNIIKKDIQNMIVEECGCS
B7: the “effect on the conversion” value was “potential negative effect”.

B8: Betacellulin: growth and differentiation factor (protein, UniProt P35070 32-111, looked up)
Betacellulin: DGNSTRSPETNGLLCGDPEENCAATTTQSKRKGHFSRCPKQYKHYCIKGRCRFVVAEQTPSCVCDEGYIGARCERVDLFY
Turning to B8, the “effect on the conversion” value is “potential positive effect”.
